Experiments:
[1] = target: T1, HCV E1 and E2 proteins (C22E1E2, genotype 1a) (Hepatitis C virus genotype 1a, UniProt P27958, H297R/K360A/N321D/N391S/R602W/V212I/Y589H); format: cell-based
T1 construct: residues 24-215 are E1, and residues 216-577 are E2; expressed in transfected cells; host or cells: 293T effector cells transfected with pcDNA3.1-HE1E2, co-cultured with Huh-7.5 target cells

[2] = tested on: HCV pseudoparticles; conditions: reports; cited from earlier work

Row | Sequence | inhibition of HCV E1E2 mediated fusion ([1]; peptide added to cells at concentrations of 10 nM or above for an hour before fusion) [%] | inhibition of transduction with pseudoparticles [2] | effect on HCV E1E2 mediated fusion ([1]; peptide added to cells for an hour before fusion, concentrations up to 10 mM)
1 | SSGLYHVTNDCPNSSIVY | ~40 | inhibits | 
2 | SAYQVRNSSGLYHVTNDC |  | does not | little effect
